Source: US20210380703A1 (RIGEL PHARMACEUTICALS, published 2021)
Residue numbers refer to the chain shown, from its start.

B1: 369_G08 (antibody, V domains shown)
VH: EVQLLESGGGLVQPGGSLRLSCAASGFTFDSYSMNWVRQAPGKGLEWVSSINYNGGYKGYADSVKGRFTISRDNSKNTLYLQMNSLRAEDTAVYYCARGANWHDTHLDYWGQGTLVTVSS
VL: not shown
notes: Group III
B2: 371_E07 (antibody, V domains shown)
VH: B1 VH with S49A, S50G, K58T, G59S, H106A
VL: DIQMTQSPSSLSASVGDRVTITCRASQSIISYLNWYQQKPGKAPKLLIYAATSLASGVPSRFSGSGSGTDFTLTISSLQPEDFATYYCQQSYESPLTFGGGTKVEIK
notes: Group III
B3: 370_B12 (antibody, V domains shown)
VH: B1 VH with D30S, S31D, S50G, H106A
VL: B2 VL with I30L, L33V, L47V, A51T, L54R, S94T
notes: Group III
B4: 371_A10 (antibody, V domains shown)
VH: B1 VH with S31D, S50G, H106A
VL: B2 VL with I30V, L47V, L54R, S94N
notes: Group III
B5: 370_B03 (antibody, V domains shown)
VH: B1 VH with D30S, S49A, S50N, K58T, H106A
VL: B2 VL with I30L, L47V, L54R, E93N, S94N
notes: Group III
B6: 371_H04 (antibody, V domains shown)
VH: B1 VH with D30S, S33G, S50N, K58T, H106A
VL: B2 VL with I30L, S31T, L54R, E93N
notes: Group III
B7: 371_G09 (antibody, V domains shown)
VH: B1 VH with D30S, S49A, S50N, K58T, H106A
VL: B2 VL with I30L, L47V, L54R, Y92D, E93S, S94T
notes: Group III
B8: 371_G04 (antibody, V domains shown)
VH: B1 VH with S50G, G59S, H106A
VL: B2 VL with I30L, A55H
notes: Group III
B9: 371_H05 (antibody, V domains shown)
VH: B1 VH with D30S, S33G, S50G, G55S, G59S, H106A
VL: B2 VL with E93S, S94L
notes: Group III
B10: 371_C04 (antibody, V domains shown)
VH: B1 VH with S33G, S50G, G55S, H106A
VL: B2 VL with I30L, L54R, E93S, S94T
notes: Group III
B11: 371_D02 (antibody, V domains shown)
VH: B1 VH with S31D, S49A, S50G, G59S, H106A
VL: B2 VL with I30V, S31T, L54R, E93D
notes: Group III
B12: 371_F10 (antibody, V domains shown)
VH: B1 VH with S33G, S50G, G55S, K58T, G59S, H106A
VL: B2 VL with I30S, L47V, A51V, L54R
notes: Group III
B13: 371_E06 (antibody, V domains shown)
VH: B1 VH with D30S, S50G, K58T, G59S, H106A
VL: B2 VL with I30S, S31T, A51V, A55H
notes: Group III
B14: 370_B11 (antibody, V domains shown)
VH: B1 VH with S50G, G55S, K58T, G59S
VL: B2 VL with I30L, L47V, L54R, A55H, S91G, E93D, S94L
notes: Group III
B15: 370_A02 (antibody, V domains shown)
VH: B1 VH with S33G, S49A, S50G, K58T, H106A
VL: B2 VL with I30V, S31T, L47V, L54R, E93D
notes: Group III
B16: 371_B03 (antibody, V domains shown)
VH: B1 VH with D30S, S33G, N35H, S49A, K58T, G59S
VL: B2 VL with I30L, L33V, A51T, L54R, E93D, S94N
notes: Group III
B17: 371_E10 (antibody, V domains shown)
VH: B1 VH with S49A, S50G, K58T, G59S, H106A
VL: B2 VL with I30S, S31T, A51V, L54R, E93N
notes: Group III
B18: 371_H10 (antibody, V domains shown)
VH: B1 VH with D30S, S49A, S50G, G55S, G59S
VL: B2 VL with I30S, S31T, L54R, A55H, S94N
notes: Group III
B19: 371_C01 (antibody, V domains shown)
VH: B1 VH with D30S, S33G, N35H, K58T
VL: B2 VL with I30V, L54R, A55H, E93D, S94N
notes: Group III
B20: 371_H06 (antibody, V domains shown)
VH: B1 VH with S33G, S50G, K58T, G59S, H106A
VL: B2 VL with I30S, L47V, A51V, L54R, E93D, S94L
notes: Group III
B21: 371_H08 (antibody, V domains shown)
VH: B1 VH with D30S, S33G, S49A
VL: B2 VL with L33V, L47V, A51V, L54R, E93D, S94T
notes: Group III
B22: 371_B04 (antibody, V domains shown)
VH: B1 VH with D30S, S50G, G59S, H106A
VL: B2 VL with I30L, L47V, A51V, L54R, A55H, E93D
notes: Group III
B23: 371_B09 (antibody, V domains shown)
VH: B1 VH with D30S, S49A, S50G, G55S, K58T
VL: B2 VL with I30L, L33V, L47V, A51T, E93D, S94T
notes: Group III
B24: 370_F03 (antibody, V domains shown)
VH: B1 VH with D30S, S33G, G55S, G59S, H106A
VL: B2 VL with I30L, L33V, L54R, S94N
notes: Group III
B25: 371_G02 (antibody, V domains shown)
VH: B1 VH with S33G, S49A, K58T, G59S
VL: B2 VL with I30L, L54R, E93D, S94L
notes: Group III
B26: 371_G11 (antibody, V domains shown)
VH: B1 VH with D30S, S33G, S50N, G55S, K58T, G59S, H106A
VL: B2 VL with I30L, L33V, E93D
notes: Group III
B27: 370_H02 (antibody, V domains shown)
VH: B1 VH with S50G, G55S, K58T, G59S
VL: B2 VL with I30L, S31T, L54R
notes: Group III
B28: 371_F11 (antibody, V domains shown)
VH: B1 VH with D30S, S50G, K58T, G59S, H106A
VL: B2 VL with L33V, A51V, L54R, E93D, S94L
notes: Group III
B29: 371_C12 (antibody, V domains shown)
VH: B1 VH with D30S, S49A, S50G, G55S, G59S
VL: B2 VL with I30V, L33V, L54R, E93D, S94T
notes: Group III
B30: 370_D05 (antibody, V domains shown)
VH: B1 VH with S31D, S50N, H106A
VL: B2 VL with S31T, L47V, L54R, A55H, E93D, S94T
notes: Group III
B31: 371_C05 (antibody, V domains shown)
VH: B1 VH with D30S, S31D, S33G, N35H, S49A, S50N, K58T, H106A
VL: B2 VL with I30L, L54R, E93D
notes: Group III
B32: 371_D04 (antibody, V domains shown)
VH: B1 VH with S31D, S49A, S50G, K58T
VL: B2 VL with I30V, L33V, S94N
notes: Group III
B33: 372_B02 (antibody, V domains shown)
VH: B1 VH with D30S, S50G, G55S, K58T, G59S, H106A
VL: B2 VL with I30L, L33V, A51V, S94T
notes: Group III
B34: 370_H07 (antibody, V domains shown)
VH: B1 VH with D30S, S49A, S50G, G59S, H106A
VL: B2 VL with I30L, Y92D, E93S
notes: Group III
B35: 371_B12 (antibody, V domains shown)
VH: B1 VH with D30S, S31D, S49A, S50G, G55S, K58T, G59S, H106A
VL: B2 VL with I30V, S31T, L47V, L54R, A55H, E93N, S94N
notes: Group III
B36: 370_D01 (antibody, V domains shown)
VH: B1 VH with D30S, K58T, H106A
VL: B2 VL with I30L, L54R, A55H, E93N, S94T
notes: Group III

Key:
[1] = molecular target: T1, biotinylated goat anti-human kappa light chain; experiment: ELISA, positive control
T1 construct: positive control of the ELISA
Method in brief: (§1)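 Binding signal was read by ELISA after ACVR2A-specific monoclonal antibodies were tested against human ACVR2A and mouse ACVR2A, with human Fc as the negative control.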

[2] = molecular target: T2, mouse ACVR2A (mouse, UniProt P27038 20-135, limits assumed); experiment: ELISA
T2 construct: coated antigen of the initial ELISA
Method in brief: as §1

[3] = molecular target: T3, human ACVR2A (human, UniProt P27037 20-135, limits assumed); experiment: ELISA
T3 construct: coated antigen of the initial ELISA; also called activin receptor, type II A
Method in brief: as §1
Further: test concentration or dose not given here.

T2 sequence (P27038 20-135 limits assumed): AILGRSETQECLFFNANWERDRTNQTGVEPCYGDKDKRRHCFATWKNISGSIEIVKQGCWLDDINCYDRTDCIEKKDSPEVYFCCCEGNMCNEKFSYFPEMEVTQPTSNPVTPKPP
T3 sequence (P27037 20-135 limits assumed): as the sequence (P27038 20-135 limits assumed) above, with R20K, I73V counted along it

Binder | optical density [1] [OD] | optical density [2] [OD] | optical density [3] [OD]
B1 | 3.58 | 3.49 | 3.3
B2 | 3.44 | 3.35 | 3.09
B3 | 3.56 | 3.08 | 2.92
B4 | 3.48 | 2.78 | 2.81
B5 | 3.61 | 3.57 | 3.71
B6 | 3.58 | 3.51 | 3.26
B7 | 3.58 | 3.07 | 2.75
B8 | 3.54 | 3.58 | 3.62
B9 | 3.27 | 1.25 | 1.2
B10 | 3.45 | 2.25 | 2.05
B11 | 3.58 | 2.99 | 2.94
B12 | 3.53 | 2.31 | 2.34
B13 | 3.44 | 3.03 | 3
B14 | 3.69 | 2.45 | 2.08
B15 | 3.62 | 2.91 | 2.9
B16 | 3.48 | 1.94 | 1.63
B17 | 3.49 | 3.05 | 3.06
B18 | 3.55 | 2.55 | 2.19

Binder | optical density [1] [OD] | optical density [2] [OD] | optical density [3] [OD]
B19 | 3.59 | 2.27 | 2
B20 | 3.7 | 3.11 | 3.03
B21 | 3.47 | 2.04 | 1.66
B22 | 2.27 | 3.13 | 2.46
B23 | 2.7 | 0.827 | 0.825
B24 | 3.3 | 1.25 | 1.14
B25 | 3.67 | 3.06 | 3.12
B26 | 3.67 | 2.75 | 2.84
B27 | 3.67 | 3.39 | 3.3
B28 | 3.68 | 3.25 | 3.04
B29 | 3.68 | 3.2 | 3.1
B30 | 3.49 | 3.12 | 2.98
B31 | 3.08 | 1.35 | 1.24
B32 | 3.3 | 1.29 | 1.02
B33 | 3.67 | 3.51 | 3.17
B34 | 3.51 | 3.25 | 3
B35 | 3.48 | 2.4 | 2.56
B36 | 3.66 | 3.17 | 3.14
